Measurements taken from the supplement of paper PMC10724198.
± gives the standard deviation of the averaged measurements.

How the values were obtained:
Saccharomyces cerevisiae [1] = assay: protein stability index of tFT-peptide fusion (C-terminal peptide) (PSI (0-1 scale)); higher = more stable (slower turnover)
Experimental: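 MPS profiling in S. cerevisiae of the tFT-X12 degron library: putative degron peptides plus stable controls, 12 aa, fused to the C-terminus of a sfGFP-mCherry timer. Cells are FACS-sorted into 8 mCherry/sfGFP bins and deep-sequenced. PSI runs from 0 (unstable) to 1 (stable). Backgrounds are wild type, das1Δ and doa10Δ at 30 °C, and wild type, das1Δ, cdc34-1 and cdc53-1 at 37 °C; 2-3 technical replicates each.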

Saccharomyces cerevisiae [2] = assay: as above; details: genetic background: wild type; temperature: 30 C
[3] = genetic background: cdc34-1, temperature: 37 C
[4] = genetic background: cdc53-1, temperature: 37 C
[5] = genetic background: das1 deletion, temperature: 30 C
[6] = genetic background: das1 deletion, temperature: 37 C
[7] = genetic background: doa10 deletion, temperature: 30 C
[8] = genetic background: wild type, temperature: 30 C
[9] = genetic background: wild type, temperature: 37 C
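Further: PSI is a weighted mean of sequencing reads over stability bins, variants kept only with over 10 reads, mCherry proximal and sfGFP distal, peptide attached via GGGS linker.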

Row | Sequence | protein stability index (Saccharomyces cerevisiae [1]; [3]) | protein stability index (Saccharomyces cerevisiae [1]; [4]) | protein stability index (Saccharomyces cerevisiae [1]; [5]) | protein stability index (Saccharomyces cerevisiae [1]; [6]) | protein stability index (Saccharomyces cerevisiae [1]; [7]) | protein stability index (Saccharomyces cerevisiae [1]; [8]) | protein stability index (Saccharomyces cerevisiae [1]; [9]) | protein stability index (Saccharomyces cerevisiae [2])
1 | VLVVLVVCRRAE | 0.247 ± 0.039 | 0.412 ± 0.0043 | 0.226 ± 0.028 | 0.438 ± 0.0089 | 0.18 ± 0.041 | 0.226 ± 0.029 | 0.422 ± 0.0083 | 0.324 ± 0.032
2 | VLYLQCITSAGH | 0.1691 ± 0.00061 | 0.203 ± 0.0061 | 0.273 ± 0.025 | 0.195 ± 0.021 | 0.31 ± 0.044 | 0.29 ± 0.037 | 0.178 ± 0.0088 | 0.246 ± 0.023
3 | VMRMVWVLGVMC | 0.281 ± 0.02 | 0.325 ± 0.047 | 0.251 ± 0.037 | 0.405 ± 0.0087 | 0.178 ± 0.0075 | 0.203 ± 0.028 | 0.35 ± 0.0091 | 0.299 ± 0.011
4 | VPSMSIVWCRVL | 0.383 ± 0.036 | 0.446 ± 0.0055 | 0.417 ± 0.02 | 0.511 ± 0.01 | 0.168 ± 0.01 | 0.123 ± 0.018 | 0.12 ± 0.005 | 0.213 ± 0.048
5 | VPSPWVFSLFLH | 0.594 ± 0.059 | 0.689 ± 0.0095 | 0.604 ± 0.025 | 0.73 ± 0.012 | 0.14 ± 0.0025 | 0.139 ± 0.0022 | 0.283 ± 0.016 | 0.242 ± 0.033
6 | VQFISLVCLFRF | 0.339 ± 0.048 | 0.361 ± 0.0089 | 0.341 ± 0.045 | 0.475 ± 0.036 | 0.346 ± 0.033 | 0.303 ± 0.018 | 0.448 ± 0.039 | 0.414 ± 0.013
7 | VQWPLLVVGCMG | 0.271 ± 0.016 | 0.312 ± 0.04 | 0.263 ± 0.029 | 0.401 ± 0.0053 | 0.211 ± 0.015 | 0.251 ± 0.036 | 0.361 ± 0.011 | 0.399 ± 0.028
8 | VSFRISAIFVCV | 0.232 ± 0.034 | 0.293 ± 0.02 | 0.216 ± 0.033 | 0.367 ± 0.0039 | 0.183 ± 0.011 | 0.202 ± 0.028 | 0.322 ± 0.045 | 0.343 ± 0.044
9 | VSPATFLFYFFF | 0.62 ± 0.022 | 0.688 ± 0.011 | 0.544 ± 0.02 | 0.655 ± 0.0092 | 0.37374 ± 0.00014 | 0.396 ± 0.013 | 0.5607 ± 0.00097 | 0.497 ± 0.017
10 | VTFCFLFVWFLV | 0.269 ± 0.004 | 0.378 ± 0.018 | 0.27 ± 0.028 | 0.413 ± 0.0092 | 0.23 ± 0.015 | 0.226 ± 0.012 | 0.345 ± 0.013 | 0.283 ± 0.048
11 | VTGFGVAIVCVT | 0.263 ± 0.021 | 0.292 ± 0.0042 | 0.254 ± 0.044 | 0.3722 ± 0.0024 | 0.191 ± 0.0072 | 0.241 ± 0.033 | 0.364 ± 0.015 | 0.369 ± 0.084
12 | VVFFFKFFLLRL | 0.262 ± 0.0047 | 0.224 ± 0.025 | 0.318 ± 0.031 | 0.407 ± 0.033 | 0.362 ± 0.018 | 0.246 ± 0.035 | 0.325 ± 0.019 | 0.363 ± 0.026
13 | VVGLVSIVQVIM | 0.43875 ± 0.0003 | 0.488 ± 0.024 | 0.308 ± 0.023 | 0.51 ± 0.027 | 0.279 ± 0.011 | 0.31 ± 0.024 | 0.493 ± 0.014 | 0.397 ± 0.041
14 | VVGRWGFVVECW | 0.268 ± 0.014 | 0.301 ± 0.024 | 0.254 ± 0.037 | 0.394 ± 0.0095 | 0.227 ± 0.011 | 0.249 ± 0.025 | 0.366 ± 0.0046 | 0.3595 ± 0.00014
15 | VVGVVVCWGRGW | 0.603 ± 0.015 | 0.666 ± 0.029 | 0.463 ± 0.024 | 0.653 ± 0.0096 | 0.448 ± 0.019 | 0.469 ± 0.015 | 0.6212 ± 0.0058 | 0.496 ± 0.046
16 | VVISRVLAIRLL | 0.5452 ± 0.00094 | 0.6095 ± 0.0003 | 0.5 ± 0.027 | 0.6173 ± 0.002 | 0.1324 ± 0.0013 | 0.137 ± 0.028 | 0.228 ± 0.042 | 0.237 ± 0.0063
17 | VVIWWFSAVVSV | 0.0446 ± 0.0021 | 0.138 ± 0.026 | 0.0727 ± 0.021 | 0.2 ± 0.013 | 0.0495 ± 0.014 | 0.0622 ± 0.026 | 0.165 ± 0.0031 | 0.148 ± 0.036
18 | VVPVGLYSVILV | 0.427 ± 0.012 | 0.447 ± 0.028 | 0.322 ± 0.03 | 0.4839 ± 0.0039 | 0.289 ± 0.0065 | 0.306 ± 0.021 | 0.451 ± 0.02 | 0.4269 ± 0.0008
19 | VVSGLNYCLVLS | 0.48 ± 0.033 | 0.48 ± 0.029 | 0.29 ± 0.042 | 0.523 ± 0.006 | 0.276 ± 0.013 | 0.28 ± 0.039 | 0.4829 ± 0.0021 | 0.3917 ± 0.0038
20 | VVVCSLVPLFVL | 0.3086 ± 0.0026 | 0.32 ± 0.035 | 0.272 ± 0.03 | 0.41 ± 0.017 | 0.205 ± 0.012 | 0.235 ± 0.029 | 0.318 ± 0.0076 | 0.34 ± 0.018
21 | VVVVWVVVEIVR | 0.147 ± 0.033 | 0.275 ± 0.11 | 0.164 ± 0.022 | 0.279 ± 0.033 | 0.121 ± 0.018 | 0.133 ± 0.024 | 0.178 ± 0.012 | 0.169 ± 0.036
22 | VVWVYSMLFSIW | 0.19 ± 0.02 | 0.3594 ± 0.00053 | 0.231 ± 0.034 | 0.403 ± 0.015 | 0.202 ± 0.013 | 0.221 ± 0.021 | 0.415 ± 0.068 | 0.276 ± 0.0055
23 | VWFFLLSFANRL | 0.4767 ± 0.0035 | 0.5386 ± 0.004 | 0.465 ± 0.043 | 0.517 ± 0.0083 | 0.466 ± 0.029 | 0.45 ± 0.0099 | 0.4845 ± 0.00053 | 0.476 ± 0.015
24 | VWFGGFVCSVLG | 0.366 ± 0.019 | 0.361 ± 0.012 | 0.314 ± 0.028 | 0.4478 ± 0.0026 | 0.244 ± 0.0056 | 0.297 ± 0.026 | 0.415 ± 0.018 | 0.393 ± 0.039
25 | VWFGGLAVCCGG | 0.398 ± 0.024 | 0.405 ± 0.037 | 0.303 ± 0.025 | 0.4815 ± 0.0022 | 0.2709 ± 0.0023 | 0.303 ± 0.03 | 0.43156 ± 0.00042 | 0.396 ± 0.042
26 | VWYSCWSFLVLF | 0.444 ± 0.026 | 0.548 ± 0.011 | 0.416 ± 0.034 | 0.55122 ± 0.00022 | 0.2 ± 0.011 | 0.207 ± 0.024 | 0.362 ± 0.035 | 0.291 ± 0.024
27 | VYRRKLDRLLCI | 0.561 ± 0.029 | 0.615 ± 0.025 | 0.512 ± 0.021 | 0.652 ± 0.0088 | 0.171 ± 0.012 | 0.182 ± 0.035 | 0.275 ± 0.005 | 0.332 ± 0.1
28 | WAAVGIQLRLLF | 0.354 ± 0.011 | 0.34 ± 0.015 | 0.317 ± 0.034 | 0.47357 ± 9.6e-05 | 0.233 ± 0.026 | 0.199 ± 0.018 | 0.347 ± 0.022 | 0.3323 ± 0.00057
29 | WALVLLVPVWFD | 0.442 ± 0.031 | 0.553 ± 0.06 | 0.383 ± 0.032 | 0.567 ± 0.011 | 0.396 ± 0.055 | 0.402 ± 0.014 | 0.533 ± 0.0073 | 0.471 ± 0.027
30 | WCAGCLGWWLQS | 0.683 ± 0.059 | 0.8029 ± 0.003 | 0.694 ± 0.015 | 0.791 ± 0.014 | 0.246 ± 0.01 | 0.316 ± 0.038 | 0.548 ± 0.012 | 0.415 ± 0.028
